In US20200010567A1 (NEURIMMUNE, published 2020):

Tests used:
[1] = target: T1, (GA)15: H-CHHHHHH(GA)15-OH; assay: indirect ELISA, uncoupled peptide coated, antibody titrated [also D00013 FIG. 3E]
T1 construct: synthetic, not coupled to BSA; also called poly-GA DPR protein peptide
T1 peptide: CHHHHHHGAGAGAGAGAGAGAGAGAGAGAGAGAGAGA
Protocol: (§1) In brief, dipeptide repeat proteins were synthesized and purified by Schafer-N(Copenhagen, Denmark): (GA)₁₅: H-CHHHHHH(GA)₁₅-OH; (GP)₁₅: H-C(GP)₁₅-OH; (GR)₁₅: H-C(GR)₁₅-OH; (PA)₁₅: H-C(PA)₁₅-OH; (PR)₁₅: H—C(PR)₁₅-OH. DPR protein peptides were then conjugated via a bifunctional linker (SMCC) to bovine serum albumin (BSA). 96-well microplates (Corning Incorporated, Corning, USA) were coated with BSA-coupled or -uncoupled dipeptide repeat protein peptides at a concentration of either 5 μg/ml or 20 μg/ml in coating buffer (15 mM Na₂CO₃, 35 mM NaHCO₃, pH 9.42). Non-specific binding sites were blocked for 1 h at room temperature with PBS/0.1% Tween®-20 containing 2% BSA (Sigma-Aldrich, Buchs, Switzerland). Primary antibodies were diluted to the indicated concentrations and incubated 1 h at room temperature, followed by incubation with a donkey anti-human IgG Fcγ-specific antibody conjugated with HRP (Jackson ImmunoResearch Laboratories, Inc., West Grove, USA). Binding was determined by measurement of HRP activity in a standard colorimetric assay. EC₅₀ values were estimated by non-linear regression using GraphPad Prism software (San Diego, USA).

(GP)15: H-C(GP)15-OH = target: T2, (GP)15: H-C(GP)15-OH; assay: indirect ELISA, uncoupled peptide coated, antibody titrated [also D00014 FIG. 3H]
T2 construct: synthetic, not coupled to BSA; also called poly-GP DPR protein peptide
T2 peptide: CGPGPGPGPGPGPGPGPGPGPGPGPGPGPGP
Protocol: as §1

GP10: H-(GP)10HHHHHH-NH2 = target: T3, GP10: H-(GP)10HHHHHH-NH2 (C-terminal amide); assay: indirect ELISA, coated His-tagged peptide
T3 peptide: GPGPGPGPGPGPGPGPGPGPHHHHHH
Summary of the method: (§2)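 Antibodies at graded concentrations bound for 1 h at room temperature to wells carrying 50 μg/ml His-tagged repeat peptide (pH 9.42 carbonate coating, 2% BSA block). Bound IgG read colorimetrically via HRP anti-human Fcγ; EC₅₀ estimated by non-linear regression.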

PR20: H-(PR)20HHHHHH-NH2 = target: T4, PR20: H-(PR)20HHHHHH-NH2 (C-terminal amide); assay: indirect ELISA, coated His-tagged peptide
T4 peptide: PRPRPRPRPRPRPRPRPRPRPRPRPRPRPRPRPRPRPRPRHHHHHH
Summary of the method: as §2

PA6: H-(PA)6HHHHHH-NH2 = target: T5, PA6: H-(PA)6HHHHHH-NH2; assay: indirect ELISA, coated His-tagged peptide
T5 peptide: H-PAPAPAPAPAPAHHHHHH-NH2
Summary of the method: as §2

PA5: H-(PA)5HHHHHH-NH2 = target: T6, PA5: H-(PA)5HHHHHH-NH2; assay: indirect ELISA, coated His-tagged peptide
T6 peptide: H-PAPAPAPAPAHHHHHH-NH2
Summary of the method: as §2

PA10: H-(PA)10HHHHHH-NH2 = target: T7, PA10: H-(PA)10HHHHHH-NH2 (C-terminal amide); assay: indirect ELISA, coated His-tagged peptide
T7 peptide: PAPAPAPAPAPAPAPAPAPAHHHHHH
Summary of the method: as §2

GR10: H-(GR)10HHHHHH-NH2 = target: T8, GR10: H-(GR)10HHHHHH-NH2 (C-terminal amide); assay: indirect ELISA, coated His-tagged peptide
T8 peptide: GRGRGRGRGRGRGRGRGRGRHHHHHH
Summary of the method: as §2

GR4: H-(GR)4HHHHHH-NH2 = target: T9, GR4: H-(GR)4HHHHHH-NH2; assay: indirect ELISA, coated His-tagged peptide
T9 peptide: H-GRGRGRGRHHHHHH-NH2
Summary of the method: as §2

GR20: H-(GR)20HHHHHH-NH2 = target: T10, GR20: H-(GR)20HHHHHH-NH2 (C-terminal amide); assay: indirect ELISA, coated His-tagged peptide
T10 peptide: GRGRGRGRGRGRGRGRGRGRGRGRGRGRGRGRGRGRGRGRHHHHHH
Summary of the method: as §2

GR3: H-(GR)3HHHHHH-NH2 = target: T11, GR3: H-(GR)3HHHHHH-NH2; assay: indirect ELISA, coated His-tagged peptide
T11 peptide: H-GRGRGRHHHHHH-NH2
Summary of the method: as §2

GR5: H-(GR)5HHHHHH-NH2 = target: T12, GR5: H-(GR)5HHHHHH-NH2; assay: indirect ELISA, coated His-tagged peptide
T12 peptide: H-GRGRGRGRGRHHHHHH-NH2
Summary of the method: as §2

GR6: H-(GR)6HHHHHH-NH2 = target: T13, GR6: H-(GR)6HHHHHH-NH2; assay: indirect ELISA, coated His-tagged peptide
T13 peptide: H-GRGRGRGRGRGRHHHHHH-NH2
Summary of the method: as §2

B1: NI-308.45C2 (antibody, V domains shown)
VH: QLQLQESGPGLVKPSQILSLTCAISGDSVFSNSAAWNWIRQSPSRGLEWLGRTYYRSKWDNDYAPSVKSRISINPDTSKNQFSLQLNSVTPEDTAVYYCAREVAYCGGDCYSVSFDYWGQGTLVTVSS
VL: not shown
notes: Recombinant complete human IgG1, kappa
B1 gave an EC50 [1] of 1.1 nM.

B2: NI-308.46E9 (antibody, V domains shown)
VH: QVQLQESGPGLVKPSETLSLTCTVSGASISGSTYYWGWIRQPPGKGLEYIGRIYYSGSTYYNPSLKSRATISVDTSKNQLSLTLSSVTAADTAVYYCVRPFYAGSGNSPFDYWGQGTLVTVSS
VL: CEIVLTQSPATVSVSPGERATLSCRASQSVSTNLAWYQQKPGQPPRLLIYGASTRATGIPARFSGSGSGAEFTLTISSLQSEDFVVYYCQQYNNWPPAFGGGTKVEIK
notes: as for B1
In the case of B2, the EC50 ((GP)15: H-C(GP)15-OH) is reported as 22 nM and the EC50 (GP10: H-(GP)10HHHHHH-NH2) is reported as 63.3 nM.

B3: NI-308.24E11 (antibody, V domains shown)
VH: QVQLQESGPGLVKPSETLSLTCTVSTTSLRSYFWSWIRQPPGKGLEWIGYVYYSGSTIYNPSLKNRVTISIDTSKNQFSLNLRSVTAADTAMYFCARGVPAETDARDFPPYYFDHWGQGTLVTVSS
VL: CDIQLTQSPSSLSASVGNRITFTCQASQDIRYYLNWYQQKPGKAPKLLIYDVSNLDTGVPPRFSGSGSGTNFTFTISSLQPEDIAVYYCQQYEGLPVTFGGGTKVEIK
notes: as for B1
Work on B3 yielded an EC50 (PR20: H-(PR)20HHHHHH-NH2) of 11.3 nM.

B4: NI-308.4M1 (antibody, V domains shown)
VH: EVQLVETGGGVVQPGGSLRLSCEASGFTIGTYAMHWVRQFPGKGLDWVAVISFDGTTEYYTDAVKGRFTISRDNAKNTLYLQMNYLRGDDTAIYFCARDFTSSGETGSWTQVPDLWGQGTLVTVSS
VL: CEIVMTQSPATLSLSPGERATLSCRASQSVTKYLAWYQQKPGQAPRLLIYDVSYRAAGTPARFSGSGSGTDFTLTISSLEPEDFAVYYCHQRSSWPPVTFGGGTKVEIK
notes: as for B1
B4 gave an EC50 (PA6: H-(PA)6HHHHHH-NH2) of 4.3 nM, an EC50 (PA5: H-(PA)5HHHHHH-NH2) of 26.9 nM and an EC50 (PA10: H-(PA)10HHHHHH-NH2) of 0.06 nM.

B5: NI-308.6B11 (antibody, V domains shown)
VH: EVQLVQSGAEVKRPGASVKVSCKVSGYTLTELSMHWVRQAPGKGLEWMGGFDPEDGETVYAQKFQGRVTMTEDTSTDTAYMELSSLRSEDTALYHCATYGSSWHWNEGNEGSYYFDYWGQGTLVTVSS
VL: CDIQMTQSPSSLSASVGDRVTITCQASQDISIYLNWYQQKPGKAPKLLIYDASNLETGVPSRFSGSGSGTDFTFTISGLQPEDVARYYCQQYDDLPITFGQGTRLEIK
notes: as for B1
B5 was tested, and the EC50 (GR10: H-(GR)10HHHHHH-NH2) was 1.3 nM, the EC50 (GR4: H-(GR)4HHHHHH-NH2) was 13.2 nM and the EC50 (GR20: H-(GR)20HHHHHH-NH2) was 0.25 nM. The EC50 (GR3: H-(GR)3HHHHHH-NH2) was 14.3 nM, the EC50 (GR5: H-(GR)5HHHHHH-NH2) was 0.47 nM and the EC50 (GR6: H-(GR)6HHHHHH-NH2) was 0.33 nM.
